Assay results: patent US20260137799A1, “ANTI-MUC1* ANTIBODY DRUG COMPLEXES AND USES THEREOF” (Minerva Biotechnologies Corporation, priority 2023, published 2026)

Key:
[1] = biological target: PSMGFR N-30 (SEQ ID NO: 157) (Homo sapiens, UniProt P15941); experiment: Epitope mapping, binding to PSMGFR N-30 peptide
From the text: FIG. 2B quantifies binding of the 3C2B1 anti-MUC1* antibody to the peptides of FIG. 2A.
(§1) The 3C2B1 epitope was mapped more precisely with additional PSMGFR peptide variants (FIGS. 2A, 2B).

[2] = system: pancreatic cancer specimens; experiment: IHC of tissue microarray, pancreatic cancer; assay type: binding, human; settings: 40 specimens, antibodies at 15 μg/mL
From the text: Tissue microarrays are typically made up of hundreds of tissue specimens, where each specimen in the array comes from a different patient. The breast cancer array contained patient specimens of all types of invasive breast cancers, including less common forms such as carcinomas with medullary features and papillary carcinomas. The lung cancer array contained specimens from patients diagnosed with squamous cell carcinoma, adenocarcinoma, mucinous adenocarcinoma, adenosquamous carcinoma and large cell carcinoma. The pancreatic cancer tissue microarray contained specimens from patients with ductal adenocarcinomas.
Similar to the lung cancer results, antibody 3C2B1 stained pancreatic cancers better than C2. Of the 40 specimens from 40 different pancreatic cancer patients, 27 were positively stained by C2, 3C2B1, or both. Eighteen (18) stained more robustly with 3C2B1 than C2 or were not stained by C2 at all. One specimen stained slightly better with C2 and 8 specimens stained essentially the same with either antibody.
Cancerous tissue arrays were purchased from Tissue Array (Derwood, MD). After deparaffinization, antigen retrieval (pH 6.0) was performed for 10 min. The sections incubated in blocking buffer (10% normal goat serum and 5% BSA in TBS) at room temperature for 1 hr before incubating in either C2 or 3C2B1 in 1% BSA-TBS overnight at 4° C. […]

[3] = biological target: PSMGFR C-10 peptide (SEQ ID NO: 3) (Homo sapiens, UniProt P15941); experiment: ELISA binding to PSMGFR C-10 peptide
From the text: (§2) Cancer selective anti-MUC1* antibodies bind to a membrane proximal conformational epitope within the MUC1* extracellular domain, as described in WO 2020/146902.
as §1

[4] = system: T47D-MUC1*45 cells; experiment: Antibody internalization (pHrodo Deep Red), T47D-MUC1*45; assay type: cell-based, human
Experimental: (§3) Antibodies C2 and 3C2B1 were tested for their ability to be internalized by T47D breast cancer cells (T47D-wt) or T47D cells that were engineered to express high levels of a recombinant MUC1* polypeptide with a 45 amino acid extracellular domain (T47D-MUC1*45), as described in WO2010042562 and WO2010042891. […] C2 internalization was detected within 2.5 hours in T47D-wt cells (FIGS. 3A-3F) and was increased by MUC1*45 expression (FIGS. 3G-3L). […] Unexpectedly, MUC1*45 expression inhibited 3C2B1 internalization (FIG. 3S-3X).
(§4) Antibodies C2 and 3C2B1 were coupled to a pH sensitive fluorophore using the pHrodo Deep Red TFP Ester kit (Thermo cat #P35356), according to manufacturer instructions. Cancer cells were seeded at ˜50,000 cells/well onto μ-Slide 8-well tissue culture-treated, chambered coverslip wells (Ibidi 80806) in their recommended media with 10% FBS. Cells were cultured for 48 hours. Slides were transferred into microscope chamber (37° C.—5% CO2) and equilibrated for ˜30 minutes. […]
(§5) Internalization of the fluorescently labeled antibodies was quantified as follows. […] The integrated pixel density (mean gray-scale value×area) was then measured by the ImageJ software. Positively-stained cells were manually counted and the integrated pixel density was divided by the number of positive cells to yield “Pixel Intensity per positive cell”.

[5] = system: H1975 lung cancer cells (H1975-wt); experiment: Antibody internalization (pHrodo Deep Red), H1975-wt; assay type: cell-based, human; settings: H1975-wt cells
Experimental: Antibodies C2 and 3C2B1 were tested for their ability to be internalized by H1975 lung cancer cells (H1975-wt) and H1975 cells that were engineered to express high levels of a recombinant MUC1* polypeptide with a 45 amino acid extracellular domain (H1975-MUC1*45). In contrast to the T47D breast cancer cells, H1975-wt cells internalized 3C2B1 faster than they internalized C2 (FIGS. 4A1-4A28, 4C1-4C28 and 4E). Two (2) hours post incubation with H1975-wt cells, […] the cells had internalized C2. […] Similar to the T47D cells, MUC1*45 expression increased the internalization rate of C2 and decreased the internalization rate of 3C2B1 (FIGS. 4B1-4B28, 4D1-4D28 and 4E).
Antibodies C2 and 3C2B1 were coupled to a pH sensitive fluorophore using the pHrodo Deep Red TFP Ester kit (Thermo cat #P35356), according to manufacturer instructions. Cancer cells were seeded at ˜50,000 cells/well onto μ-Slide 8-well tissue culture-treated, chambered coverslip wells (Ibidi 80806) in their recommended media with 10% FBS. Cells were cultured for 48 hours. Slides were transferred into microscope chamber (37° C.—5% CO2) and equilibrated for ˜30 minutes. The pHrodo Deep Red coupled antibody was then diluted to a concentration of 200 to 300 μg/mL into pre-warmed media supplemented with 10% FBS. Media was removed from the chamber slides and the diluted antibodies were separately added. Fluorescent (655 nm) and phase contrast images at were collected every 10 min for 12h or 16 h with a Leica Thunder Live Cell 3D microscope.
Internalization of the fluorescently labeled antibodies was quantified as follows. Images were imported into ImageJ. The selection tool was used to draw a region of interest (ROI) on the image. The integrated pixel density (mean gray-scale value×area) was then measured by the ImageJ software. Positively-stained cells were manually counted and the integrated pixel density was divided by the number of positive cells to yield “Pixel Intensity per positive cell”.

[6] = system: T47D breast cancer cells (T47D-wt); experiment: Antibody internalization (pHrodo Deep Red), T47D-wt; assay type: cell-based, human
Experimental: as §3, §4, §5

[7] = Toxicity in animal studies; assay type: in vivo; settings: each antibody incorporated into several ADC formats
From the text: Exatecans and deruxtecans can also have bystander effects. […] It is not completely clear whether these side effects are due to the payload or to the HER2 target, which is also expressed on normal lung and normal heart. The first two patients treated with a HER2 targeting CAR T cell product died shortly after the infusion. […] More recently, yet another patient died after being treated with a different HER2-targeting ADC. […] 32CB1, C2 and 20A10 unexpectedly have an extremely high degree of cancer specificity and elicited no toxicities in animal studies, where each antibody was incorporated into several ADC formats.

[8] = biological target: PSMGFR peptide (SEQ ID NO: 1) (Homo sapiens, UniProt P15941); experiment: ELISA binding to PSMGFR peptide
From the text: MUC1* is a cancer-specific antigen produced by proteolytic cleavage of the extracellular domain of MUC1. The extracellular domain of MUC1* comprises about 45 amino acids. Monoclonal antibodies generated against the PSMGFR peptide (SEQ ID NO: 1) bind to MUC1*, as described in WO 2020/146902.
as §2, §1

Sequence of PSMGFR C-10 peptide (SEQ ID NO: 3) (P15941 1110-1144 limits assumed): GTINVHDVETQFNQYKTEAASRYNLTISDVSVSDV
Sequence of PSMGFR peptide (SEQ ID NO: 1) (P15941 1110-1154): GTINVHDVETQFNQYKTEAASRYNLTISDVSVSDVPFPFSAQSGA

B1: 3C2B1: anti-MUC1* monoclonal antibody that bound to the PSMGFR peptide (antibody, V domains shown)
VH: EVMLVESGGGLVKPGGSLKLSCAASGITFSTYTMSWVRQTPEKRLEWVATISTGGDKTYYSDSVKGRFTISRDNAKNNLYLQMSSLRSEDTALYYCARGTTAMYYYAMDYWGQGTSVTVSS
VL: DIVLTQSPASLAVSLGQRATISCRASKSISTSDYNYIHWYQQKPGQPPKLLIYLASNLESGVPARFSGSGSGTDFTLNIHPVEEEDAATYYCQHSRELPLTFGAGTKLELK
binding to N-30 variant PSMGFR peptide [1]: bound | 3C2B1 > C2 (number of specimens stained better with 3C2B1) [2]: 18 | binding to PSMGFR C-10 [3]: do not bind | effect of MUC1*45 expression on internalization ([4]; T47D-MUC1*45 vs T47D-wt): inhibited | fraction of cells that internalized detectable antibody ([4]; T47D-MUC1* cells, after 14 hours): Less than half | internalization rate compared to C2 [5]: faster | time by which essentially all the cells had internalized the antibody [5]: ≤ 6 h | fraction of cells that had internalized antibody ([5]; 2 hours post incubation): about one third | fraction of cells that had internalized antibody ([5]; by 4 hours): more than a half | internalization rate compared to C2 [6]: internalized more slowly | toxicities in animal studies [7]: no toxicities | binding to the PSMGFR 45mer peptide [8]: bind
